Test results published in publication PMC7954794, “Protein context shapes the specificity of SH3 domain-mediated interactions in vivo” (Nature Communications, 2021).

B1: YGL099W (protein, UniProt P53145 1-640, looked up)
Large subunit GTPase 1: MPPKEAPKKWKAPKGPKPTHRKNKNKLELGRAIKYARQKENAIEYLPDGEMRFTTDKHEANWVKLRSVTQESALDEFLSTAALADKDFTADRHSNVKIIRMDSGNDSATSQGFSMTNEQRGNLNAKQRALAKDLIVPRRPEWNEGMSKFQLDRQEKEAFLEWRRKLAHLQESNEDLLLTPFERNIEVWKQLWRVVERSDLVVQIVDARNPLLFRSVDLERYVKESDDRKANLLLVNKADLLTKKQRIAWAKYFISKNISFTFYSALRANQLLEKQKEMGEDYREQDFEEADKEGFDADEKVMEKVKILSIDQLEELFLSKAPNEPLLPPLPGQPPLINIGLVGYPNVGKSSTINSLVGAKKVSVSSTPGKTKHFQTIKLSDSVMLCDCPGLVFPNFAYNKGELVCNGVLPIDQLRDYIGPAGLVAERIPKYYIEAIYGIHIQTKSRDEGGNGDIPTAQELLVAYARARGYMTQGYGSADEPRASRYILKDYVNGKLLYVNPPPHLEDDTPYTREECEEFNKDLYVFDRLPDTRKEQVQNAAKAKGIDIVDLARDLNQLTFSAHTGGDTQKEAKSVTHGGKQAALYNAAEDLDRDFFKMNNVEGRLSTPFHKVQNSSAGKRHNKKNKSKNAKSKVFSIENN
B2: YJR083C (protein, UniProt P47129 1-309, looked up)
Assembly-complementing factor …: MSEDQRVISQPIELHKLSIVDKHSQGQQQQPHQKQHEVQPESKSPRVTTPLKPKRLAIPISSPQRSTTNQSPVSDHASPISTDQDLIYKLAAKHREINELSFKLEVAQKELKQLELQFKDTLPRNGQQKLGNQNPSEYLSTFTKRIQQTFVDVNNSPNMLKGKKSINDFFSKPNNNVNSNINNTLPNRKPNPPPNRSQRMQNIAPSRSSESTPTSGPPLLPPRNTMKNANTTATAGENTPFLQRILNKFNQMNMEEDEFDDLLEKRKSKKDHYYIKENLGYEYDEVRSEDEDDEEFEPMGDIPVHLFKR
B3: YBR130C (protein, UniProt P38272 1-425, looked up)
SWI5-dependent HO expression …: MSDQDNTQTSSSKLAPHHNIFMANLESSPTKDRNTSSQNASSSRVIESLHDQIDMLTKTNLQLTTQSQNLLSKLELAQSKESKLLENLNLLKNENENLNSIFERKNKKLKELEKDYSELSNRYNEQKEKMDQLSKLAKNSSAIEQSCSEKLQNMEVNYNSLLESQNLYRDHYSDEISKLNEKIGLLELELSNQNLNYGSDTSSNSDIELNLNKFNDSVKDLKSLETEKDSKLSKIITHSLDELNLQSWLNLYQTNENLISTFAEKMDLKDVLKRNDEKISNKGAVVQTLKKNVQTQVESNNADALSSNNAQDMLPIKMVKLRKTPNTNDSSSNGNSSNNKRRSFYTASPLLSSGSIPKSASPVLPGVKRTASVRKPSSSSSKTNVTHNNDPSTSPTISVPPGVTRTVSSTHKKKGNSMVVHGAQS
B4: YNL094W (protein, UniProt P53933 1-587, looked up)
Phosphatidate phosphatase APP1: MNSQGYDESSSSTAATSGPTSGDPRMGKKQRFMNLIRTTKDVYIPNLTSSISQKTMDGIRSTTNSFEGYNDLPMELPHNTTITYFPTYTTTNLVDPDGLSAPRKDFETTVRCAVSYPGNPTSRRNRWLLSLCKQYLRTGTAEADVAPVVPPHLEEDSGDLNDSQSSIESSLSSKSENRYSHMGIQEEDVLNERIQGFLSKKVPNTPVVVDLLPKDKLRGDTASFFGTTDSYGNLLIKAETDFLPSKINITLDTPIEGHADPISETFPANYVSPYGIGLISDIDDTIKHTGVTGDRRSMFRNVFIHDVQSWVIDGVPLWYKTLHDVADVDFFYVSNSPIQTFTLLKQYICANFPPGPIFLKQYSGNFFSTIMTSSANRKIQPIANILKDFPKKKFILVGDSGEHDLEAYTTTALQFPNQILAIYIRCCSNSMSDVPSHDEEVMNEVNNIIELQQRPMQMTKSTVRTRRRPPPPPIPSTQKPSLTEEQTESIRMSRRNKDENNAKRVAPPPLPNRQLPNLDANTYYVPSSQNDYGMYGAFMDKKADEWKRRVMDSIQKLSNQDTTLMFFSDPALSLEDSIRRIREKYSN

system: ABP1; test: DHFR-PCA on solid medium, bait ABP1 (Fig. 1B); assay type: cell-based, Saccharomyces cerevisiae; conditions: bait ABP1, label = prey; 2-4 replicates
Description: Supplement 41467_2021_21873_MOESM8_ESM.xlsx, sheet "Fig1B" | column: medsize; medrep; Ratio; Score

| Molecule | medrep (log2 median colony size normalized to plate background, PCA score) |
| --- | --- |
| B1 | 1.414 |
| B2 | 1.804 |
| B3 | 2.63 |
| B4 | 1.857 |

same assay, conditions: bait ABP1, label = prey; only significant differences showed; PPIs completely lost have a ratio of 0.1 and the gained PPIs 2.5

| Molecule | Ratio (SH3-deleted/WT medrep) |
| --- | --- |
| B1 | 0.1 |
| B2 | 0.1 |
| B4 | 0.1 |
